A short description of the series: Size exclusion chromatography (SEC) of purified S1P1-fusion partner proteins. It is filed as physicochemical. Particulars: presence or absence of ligand. How it is done:
S1P1-fusion partner proteins (“S1P1 fusion receptors”) were purified from membranes by dodecyl-maltoside (DDM) extraction followed by immobilized metal affinity chromatography (IMAC) on Talon resin (Clontech) as detailed below. Frozen cellular membranes were thawed by adding room temperature lysis buffer to a total volume of 25 mL. The S1P1 receptor antagonist W146 was added to a final concentration of 125 μM. The mixture was allowed to incubate at room temperature for 1 hour to ensure complete saturation of the receptor with ligand followed by addition of iodoacetamide to a concentration of 1 mg/mL and an additional 1 hour incubation at 4° C. Receptor solubilization was initiated by addition of detergent and cholesteryl hemisuccinate (CHS) to achieve a final concentration of 0.5% DDM 0.1% CHS. The solubilization buffer consisted of the following mixture: 50 mM Hepes pH 7.5; 800 mM NaCl; 30 mM Imidazole; 0.1% DDM 0.02% CHS; 125 μM W146. […]
Eluted proteins were analyzed by size-exclusion chromatography (SEC) followed by SDS-PAGE. […] SEC fractions corresponding to S1P1-fusion partner proteins were evaluated separated by SDS-PAGE on a 10% gel and stained, confirming that each S1P1-fusion partner protein could be purified to near-homogeneity (data not shown).

B1: S1P1-flavodoxin: S1P1 receptor with flavodoxin replacing part of ICL3, SEQ ID NO: 3 (protein, listed as Homo sapiens)
chain: MGPTSVPLVKAHRSSVSDYVNYDIIVRHYNYTGKLNISADKENSIKLTSVVFILICCFIILENIFVLLTIWKTKKFHRPMYYFIGNLALSDLLAGVAYTANLLLSGATTYKLTPAQWFLREGSMFVALSASVFSLLAIAIERYITMLKMKLHNGSNNFRLFLLISACWVISLILGGLPIMGWNCISALSSCSTVLPLYHKHYILFCTTVFTLLLLSIVILYCRIYSLVRTRAKALIVYGSTTGNTEYTAETIARELADAGYEVDSRDAASVEAGGLFEGFDLVLLGCSTWGDDSIELQDDFIPLFDSLEETGAQGRKVACFGCGDSSWEYFCGAVDAIEEKLKNLGAEIVQDGLRIDGDPRAARDDIVGWAHDVRGAIASRSSENVALLKTVIIVLSVFIACWAPLFILLLLDVGCKVKTCDILFRAEYFLVLAVLNSGTNPIIYTLTNKEMRRAFIRIM
Turning to B1, the “stability by SEC (in words)” value is on record as “stable in the presence or absence of ligand”.
